# Measurements as given in the nanobody polyreactivity screen of Harvey et al. (2022).
# Test: yeast display, Sf9 membrane polyspecificity reagent, FACS + sequencing; frameworks hold sequencing errors
# Outline: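 Sorting gates, low and high (top ~1%), were placed on anti-HA fluorescence to track expression and on streptavidin fluorescence to track reagent binding. A clone's polyreactivity label is taken from the gate it came out of. The reagent was 10% biotinylated, detergent-solubilized Sf9 membrane, applied for 1 hour at 4 °C to galactose-induced yeast display cells.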
row,Sequence,polyreactivity (PSR sort gate)
1,QVQLVESGGGLVQAGGSLRLSCAASGRIFGIYAMGGSRQAPGKERELVASITDGTITYYADSVKGRFTISRDNAKNTVYLQMNSLKPEDTAVYYCAAGTQAHAYVVRPIEMDYWGQGTQVTVSS,low polyreactivity
2,QVQLVESGGGLVQAGGSLRLSCAASGIIFPRNAMGWSREAPGKERELVAAITSGDTTNYADSVKGRFTISRDNAKKTVYLQMNSQKPADTAVYYCAADQFQGNSGFEYWGQGTQVTVSS,low polyreactivity
3,QVQLVESGGGLVQAGGSLPLSCAASGITFRYYAMGWYRQAPGKERELVAAITRGGRTNYADSVKGRFTISRDNAKNTVYLQMNSLKPEDTAVYYCATGRDSNFGNSYYYWGQGTQVTVSS,high polyreactivity
4,QVQLVESGGGLVQAGGSLRLSCAASGSTFKRYAMGRDRQAPGQERELVAAITWRGGSTYYADSVKGRFTISRDNAKNTVYLQMNSLKPEDTAVYYCNKASWKVGPGIGYDYWGQGTQVTVSS,high polyreactivity
5,QVQLVESGGGLVQAGGSLRLSCAASGRTISSYAMGWSRQAPGKERELVAAISRSGGNTYYPDSVKGRFTISRDHAKNTVYLQMNSLKPEDTAVYYCNARGRTGFQADKFGYWGQGTQVTVSS,high polyreactivity
6,QVHLVESGGVLVQAGGSLRLSCAASGIALLYYTMGWYRQAPGKERELVAAINSGGRTYYADSVKGRYTISRDNAKNTGYLQMNSLKPDDTAVYFCAAHGGADHMDYWGQGTQVTVSS,high polyreactivity
7,QVQLVESAGCLVQAGGSLRLSCAASGSTIYRYAMGWYRQAPGKERELVAAITRTGGSTYADSVKGRFTISRDNAKNSVFLQMNSLKPEDTAVFYCAVQRYYVSSISPFYYWGQGTQVTVSS,low polyreactivity
8,QVQLVESGGGLVQAGGSLRLSCAASGRTFGTYAIGWYRQAPGKERELVAAITGSGDRTYYADSVKGRFTISRDNAKNTVYLQMNSLKPEDTAVYYCAAYSDRSYGFWGQGTQVTVSS,low polyreactivity
9,QVQLVESGGGLVQAGGSLRLSCAASGRTFTFYAMGWYRQAPGKERELVAAIRRGGSTIYADSVKGRFTISRDNAKNTVYLQMNSLKPEDTAVYYCNKRVWYPYWTLDYWGQGTQVTVSS,low polyreactivity
10,QVQLVESGGGLVQAGGSLRLSCAASGRTFYRYTMGWYRQAPGTERELVAAISWSGGSTYYADSVKGRFTSSRDNAKNTVYLQMNSLKPEDTAVYYCAKATYWLYVQWYTYGYWGQGTQVTVSS,high polyreactivity
11,QVQLEDSGGGLVQAGGSLRLSCAASGSIFYSNSMGWYRQAPGKERELVAAISSSGSRTYYADSVKGRFTISRDNAKNTVYLQMNSLKPEYTAVYYCSAVIRYTRSYDYWGQGTQLTVSS,high polyreactivity
12,QVQLVESGGCLVQAGGSLRLSCAASGIIFDDYAMGWYRQAPGKERELVAAISVSGGSTYYADSVKGRFTISRDNAKNTVYLQMKSLKPEDTAVYYCAARLRQPYSRGNYWGQGTQVTVSS,high polyreactivity
13,QVQLVESGGGLGQAGGSLRLSCAASGFTFRYYAMGWNRQAPGKERELVAAISASGGSTYYADSVKGRFTISRDNAKNTVYLQMNSLKPEDTAVYYCARYYAKMDYWGQGTQVTVSS,high polyreactivity
14,QVQLVESGGGLVQAGGSLRLSCAASGRTFRRYAMGWYRQAPGKERELVAAITGAGSTYYADSVKGRFTISRDNAKNTVYFQMNSLKPEDTAVYYCAATPDPPHSYEYWGQGTKVTVSS,low polyreactivity
15,QVQLVESGGGLVQAGGRLRLSCAASGSIYDDYAMGWNRQAPGKEREFVAAIDYSGGSTYYADSVKGRFTISRDNAKNTVYFQKNSLKPEDTAVYYCAKEAITRTFQYRHDYWGQGTQVTVSS,low polyreactivity
16,QVQLVESGGGLVQAGGSLRLSCAASGRTFSYYAMGWYRQAPGKERELVASISGGGRTNYADSVKGRFTISRDNAKITVYLQMNSVKPEDTAVYYCAASYQITRQYKRGYWGQGTQVTVSS,high polyreactivity
17,QVQLVESGGGLVQAGGSLRLSSAASGSTFGKYARGWYRQAPGKERELVAAITVNAGRTYYADSVKGRFTISRDNAKNTVYLQLNSLKPEDTAVYYCAGVPRRYYARYYYWGQGTQVTVSS,high polyreactivity
18,QVQLVESGGGLVQAGGSLRLSCAASGSIFYYNPMGWYRQAPWKERELVAAITGSGGSTYYADSVKGRFTISRDNAKNTVYLQMNSLKPEDTAVYYCAADYSLYGWWFRNDYWGQGTQVTVSS,low polyreactivity
19,QVQLVESGGGLVQAGGSLRLSCAASGRTFFYYAMGWYRPAPGKERELVAGSTNYADSVKGRFTISRDNAKNTVYLQMNSLKPEETAVYYCNADPDDYWGQGTQVTVSS,low polyreactivity
20,QVQLVESGGGLVQAGGSLRLSCAASGGIFLYNAMGWYRQAPGKERELVAAISRSGGGTYYADSVKGRFTISRDNAKNTVYLQMNSLKPEDTAVYYCAKTLRAYSDYYYWGQGTQVTVSS,high polyreactivity
21,QVQLVESGGGLVQAGGSLRLSCAASGSIFKLNAMGWYRQAPGKERELVAAISRGGRKYYADSVKGRFTISRDNAKNTVYLQMNSLKPEDTAVYYCAADASSQIWYYPRDDYWGQGTQVTVSS,low polyreactivity
22,QVHLVESGGGLVQAGGSLRLSCAASGRIFADYAMGWYRQAPWKERELVADIRQSGGRTYYADSVKGRFTISRDYAKNTVDLQMNSLKPEDTAVYYCATDYGSWGDYSGKYDYWGQGTQVTVSS,low polyreactivity

row,Sequence,polyreactivity (PSR sort gate)
1,QVQLVESGGGLVQAGGSLRLSCAASGSIFYHYAMGWYRQAPGKERELVAAISWRGASTYYADSVKGRFTISRDNAKNTVYLQMNSLKPEDTAVYYCARLSSSHPLYRDEYWGQGTQVTVSS,high polyreactivity
2,QVQLVESGGGLVQAGGSLRLSCAASGRIFKSYVMGWYRQAPGKERELVAAISWSGGTYYADSVMGRFTNSRDNAKNTVYLQMNCLKPEDTAVYYCAAYYLGSYNPLDYWGQGTQVTVSS,high polyreactivity
3,QVQLVESGGGLVQAGGSLSLSCAASGFTFRYNAMGWYRQAPGKERELVARISSTGGGTSYADSVKGRFTISRDNAKNTVYLQMNSLKPEDTAVYYCAAPVRRYPYPGRFYYWGQGTQVTVSS,low polyreactivity
4,QVQLVESGGGLVQAGVSLRLSCAASGRIFSPYAMGWYRQAPGKERELVAAIDWDGGGTYYADSVKGRFTISRDNAKNTVYLQMNSLKPEDTAVYYCAAETDLANGTSPSDYCGQGTQVTVSS,low polyreactivity
5,QVQHVESGGGLVQAGGSLRLSCAASGYTFFANAMGGYRQAPGKERELVAGINRSGSTYYADSVKGRFTISRDNAKNTVYLQMNSLKPEDTAVYYFATAWHRGVRGRTSGAFDYWGQGTQVTVSS,high polyreactivity
6,QVHLVESGGGLVQAGGSLRLSCAASGRTFFWYVMGWYRQAPGKERELVATISYGGITYYADSVKGRFTISRDNAKNTVYLQMNSLKPEDTAVYYCAARRSLYYSTVKFDGYYYWGQGTQVTVSS,high polyreactivity
7,QVQLVESGGGLVQAGGSLRLSCAASGRTFYYNPMGWYRQAPGKERELVAAITQSGGRTYYADSVKGRFTISRDNAKNTVYVQMNSVKPEDSAVYYFYAVRPVRGYIYQGYNYWGQGTQVTVSS,high polyreactivity
8,QFQHVESGGGLVQAGGSLRLSCAASGSTFGLYAMGWYRQAPGKERELVADITWSGGSTYYADSVKGRFTISRDNAKNTVYLQMNSLKPEDTAVYYCAARYPWVYYDFDYWGLGTQVTVSS,low polyreactivity
9,QVQLVESGGGLVQAGGSLRLSCAASGNIFGVNAMGWYRQAPGKERELVAAITCSDSSTNYADSVKGRFTISRDNAKNTVYLQMNSLKPEDTAVYYCATRVWRSAQSRWYGYDYWGQGTQVTVSS,high polyreactivity
10,QVQLVESGGGLVQAGGSLRLSCAASGSIFPWYAMGWYRQAPGKERELVAAITISGGSTHYADTVKGRFTISRDNAKYTVYLQMNSLKPEDTAVYYCATPRYPSYDYWGQGTQVTVSS,low polyreactivity
11,QVQLVESGGGLVQAGGSLRLSSAASGGIFFIYVMGWYRQAPGKERELVAAISWSGGDTYYADSVQGRFTISRDNAKNTVYVQMNSLKPEDTAVYYCAARYYYLGTRYGYWGQGTQVTVSS,low polyreactivity
12,QVQLVESGGGLVQAGGRLRLSCAASGSTFSYYAMGWYRQAPGKEREMVAAISRTGGSTYYADSVKGRCTISRDNAKNTVYLQMNSLKAEDTAFYYCNARAPVGTFDYDYWGQGTQVTVSS,low polyreactivity
13,QVRLVESGGGLDQAGGSLRLSSAASGRIFNRNAMGWYRQAPGKARELVAAINRGGSTNYADSVKGRFTISRDNAKNTVYLQLNRLKPEDTAVYYCAAELLYATLWRRYSGYYYWGQGTQVTVSS,high polyreactivity
14,QVQLVESGGGLVQAGGSLRLSCAASGSIYYHNAMGWYRQAPGKERELVAAITGSGGSTYYADSVKGRFTISRDNAKNTVYLQMNSLKPEDTAVYYCAADGYTKWWISWGYDYWGQGTQVTVSS,low polyreactivity
15,QVQRQESGGGLVQAGDSQRLSCAPSGNIFRFTDMGWYRQAPGQERELVAAINAGSTTYYADSVKGRFTISRDNAKNTVYLQMNSLKPEDTAVYYCAVYYLGSGTFGYWGQGAQVTVSS,high polyreactivity
16,QVQLVESGGGLVQAGGSLRLSCAASGTFYYYAMGWYRQAPGKERDLVAGITSGGSTYYADSVKGRFTISRDNAKNTVYLQMNSLKPEDTAVYYCNTKVISRTSERRGNGFTRYDYWGQGTQVTVSS,low polyreactivity
17,QVQLVESGGGLVQAGGSLRLSCAASGFIFYYYAMGWYRQAPGKEREFVAGISRSGGSTYYADSVKGRFTISRDNAKNTVYLQMNSLKPEDTAVYYCGEFWTYWGYGQYDYWGQGTQVTVSS,low polyreactivity
18,QVQLVESGGVLVQAGGCLRLSCAASGSILDLNAMGWYRQAPGKERELVAAISLSGGTTYYADSVKGRFTISRDNAKNTVYLQMYSLKPEDTAVYYCNAGYFRPRAGNYVFGVESDYWGQGTQVTVSS,high polyreactivity
19,QVQLVESGGGLVQAGGSLRLSCAASGRTFRYYALGWYRQAPGKERELVASITGSGGSTTYADSVKGRFTISRDNAKNTVYLLMNSLKPEDTAVYYCAVRYPYYSYRAKLGYWGQGTQVTVSS,high polyreactivity
20,QVHLQESGGGLMQAGGNLRLSCAASGYISTHYDMDWYRQAPGKERELVARIDDGAITNYADSVKGRFTISRDNAKNTVYLQMNSLKPEDTEVYYCAVYSGDDYYHDYWGQGTQVTVSS,low polyreactivity
21,QVQLVESGGGLVQAGGSLRLSCAASGSTFPPNAMGRYRQAPGKERELVAAISFSSGRTYYADSVKGRFTFSRDNAKNTVYLQMNSLKPEDTAVYYCAADHGYLGQGTQVTVSS,low polyreactivity
